Source: the Human Domainome abundance scans (Beltran et al. 2025)
± gives the uncertainty stated by the source.

B1: Poly(rC)-binding protein 1, residues 278 to 350; numbered along this chain, Q15365 (parent)
chain: TQTTHELTIPNNLIGCIIGRQGANINEIRQMSGAQIKIANPVEGSSGRQVTITGSAASISLAQYLINARLSSE

Variants of: B1
Assay: abundance fitness (aPCA) (normalised: wild type 0, dead -1); higher = more abundant; growth selection in yeast, the domain comes from the species named
Settings: Homo sapiens

Point of comparison: R48V, abundance fitness -0.093 ± 0.034. Against it:
- I59V — higher, 0.063 ± 0.047
- I59D — lower, -0.567 ± 0.29
- I59M — lower, -0.477 ± 0.12
- I59E — lower, -0.626 ± 0.081
- I59P — lower, -0.764 ± 0.098
- I59Q — lower, -0.421 ± 0.08
- I59G — lower, -0.66 ± 0.051
- I59K — lower, -0.323 ± 0.092
- I59W — lower, -0.752 ± 0.082
- I59C — higher, 0.098 ± 0.068
- I59Y — lower, -0.93 ± 0.42
- I59N — lower, -0.423 ± 0.22
- I59A — within error, -0.044 ± 0.035
- I59L — lower, -0.355 ± 0.061
- I59T — higher, -0.008 ± 0.044
- V42S — within error, -0.028 ± 0.042
- V42Q — within error, -0.159 ± 0.058
- V42T — within error, -0.1 ± 0.059
- V42R — higher, -0.012 ± 0.032
- V42H — within error, -0.186 ± 0.12
- V42C — within error, -0.086 ± 0.085
- V42P — lower, -0.192 ± 0.062
- V42M — lower, -0.229 ± 0.067
- V42E — higher, -0.011 ± 0.044
- V42I — within error, -0.007 ± 0.11
- V42G — within error, -0.13 ± 0.035
- V42Y — within error, -0.141 ± 0.1
- V42N — lower, -0.272 ± 0.13
- V42D — within error, -0.028 ± 0.074
- V42L — within error, -0.151 ± 0.045
- V42W — lower, -0.525 ± 0.061
- V42K — within error, -0.017 ± 0.052
- E43H — within error, -0.021 ± 0.054
- E43N — within error, -0.024 ± 0.054
- E43M — higher, 0.05 ± 0.07
- E43C — within error, -0.168 ± 0.083
- E43Q — lower, -0.258 ± 0.079
- E43V — higher, 0.073 ± 0.057
- E43G — within error, -0.115 ± 0.077
- E43Y — within error, -0.051 ± 0.052
- E43A — lower, -0.249 ± 0.072
- E43W — within error, -0.18 ± 0.091
- E43F — within error, -0.179 ± 0.067
- E43I — higher, 0.01 ± 0.065
- E43R — within error, -0.061 ± 0.046
- E43L — within error, -0.039 ± 0.045
- E43S — within error, -0.02 ± 0.045
- E43T — within error, -0.119 ± 0.056
- A56K — higher, 0.029 ± 0.055
- A56W — lower, -0.269 ± 0.052
- A56D — within error, -0.029 ± 0.06
- A56T — higher, 0.026 ± 0.066
- A56H — within error, -0.027 ± 0.089
- A56Q — higher, 0.076 ± 0.062
- A56N — within error, -0.078 ± 0.078
- A56I — within error, -0.024 ± 0.11
- A56C — within error, -0.102 ± 0.07
- A56G — within error, -0.077 ± 0.034
- A56R — within error, -0.039 ± 0.035
- A56E — within error, -0.044 ± 0.047
- A56Y — lower, -0.245 ± 0.091
- A56M — higher, 0.081 ± 0.062
- A56V — within error, -0.072 ± 0.047
- A56L — higher, 0.026 ± 0.051
- A56F — within error, 0.032 ± 0.11
- G44M — lower, -0.343 ± 0.068
- G44T — lower, -0.374 ± 0.059
- G44C — within error, -0.19 ± 0.12
- G44E — lower, -0.278 ± 0.1
- G44Q — lower, -0.308 ± 0.069
- G44P — lower, -0.211 ± 0.054
- G44I — lower, -0.732 ± 0.18
- G44D — within error, -0.087 ± 0.13
- G44S — lower, -0.235 ± 0.049
- G44N — within error, -0.12 ± 0.088
- G44V — lower, -0.353 ± 0.078
- G44K — lower, -0.229 ± 0.066
- G44W — lower, -0.424 ± 0.1
- G44H — lower, -0.333 ± 0.1
- G44R — lower, -0.212 ± 0.055
- G44A — lower, -0.213 ± 0.065
- G44F — within error, -0.182 ± 0.094
- G44L — lower, -0.401 ± 0.05
- G44Y — higher, 0.081 ± 0.078
- T51Y — within error, -0.07 ± 0.099
- T51R — within error, -0.054 ± 0.043
- T51I — within error, -0.107 ± 0.11
- T51G — lower, -0.574 ± 0.065
- T51N — lower, -0.427 ± 0.23
- T51F — within error, -0.071 ± 0.12
- T51M — within error, -0.066 ± 0.043
- T51H — within error, -0.287 ± 0.17
- T51L — within error, -0.034 ± 0.037
- T51P — lower, -0.682 ± 0.11
- T51V — within error, -0.027 ± 0.033
- T51W — within error, -0.063 ± 0.058
- T51Q — within error, -0.088 ± 0.048
- T51K — higher, 0.005 ± 0.052
- T51D — lower, -0.542 ± 0.22
- T51E — within error, -0.097 ± 0.038
- T51S — within error, -0.02 ± 0.042
- T51C — within error, 0.024 ± 0.085
- S46D — higher, 0.19 ± 0.076
- S46Y — within error, -0.117 ± 0.057
- S46P — within error, -0.029 ± 0.049
- S46G — within error, -0.032 ± 0.057
- S46I — within error, -0.104 ± 0.08
- S46T — within error, -0.063 ± 0.046
- S46M — within error, -0.139 ± 0.054
- S46C — within error, -0.021 ± 0.081
- S46L — higher, 0.064 ± 0.041
- S46W — within error, -0.125 ± 0.069
- S46K — higher, -0.002 ± 0.044
- S46N — higher, 0.069 ± 0.052
- S46V — within error, -0.179 ± 0.067
- S46F — within error, 0.002 ± 0.075
- S46A — within error, -0.015 ± 0.051
- S46E — within error, -0.088 ± 0.057
- S46R — within error, -0.106 ± 0.048
- S46Q — within error, -0.048 ± 0.048
- S46H — within error, -0.205 ± 0.084
- V50F — lower, -0.602 ± 0.19
- V50W — lower, -0.989 ± 0.2
- V50A — lower, -0.639 ± 0.089
- V50G — lower, -0.865 ± 0.089
- V50N — lower, -0.819 ± 0.25
- V50I — higher, 0.047 ± 0.088
- V50R — lower, -0.818 ± 0.11
- V50S — lower, -0.882 ± 0.16
- V50K — lower, -0.7 ± 0.14
- V50E — lower, -0.714 ± 0.12
- V50L — within error, -0.069 ± 0.035
- V50Y — within error, -0.57 ± 0.46
- V50C — within error, -0.147 ± 0.093
- V50D — lower, -0.796 ± 0.25
- V50M — lower, -0.202 ± 0.056
- V50H — lower, -0.596 ± 0.35
- V50T — lower, -0.901 ± 0.17
- S45V — within error, -0.012 ± 0.087
- S45H — lower, -0.223 ± 0.087
- S45P — lower, -0.442 ± 0.091
- S45T — higher, 0.056 ± 0.046
- S45Y — within error, -0.044 ± 0.075
- S45I — the same, -0.093 ± 0.076
- S45M — within error, 0.005 ± 0.073
- S45N — within error, -0.031 ± 0.067
- S45A — within error, -0.002 ± 0.062
- S45Q — within error, -0.054 ± 0.065
- S45G — lower, -0.292 ± 0.12
- S45K — higher, 0.094 ± 0.076
- S45R — within error, -0.157 ± 0.07
- S45D — within error, 0.026 ± 0.15
- S45E — within error, 0.002 ± 0.1
- S45F — within error, -0.009 ± 0.094
- S45C — within error, 0.012 ± 0.13
- S45L — within error, -0.011 ± 0.05
- S45W — lower, -0.431 ± 0.15
- R48P — lower, -0.714 ± 0.11
- R48I — within error, -0.205 ± 0.08
- R48D — lower, -0.626 ± 0.12
- R48C — within error, -0.114 ± 0.05
- R48T — within error, -0.158 ± 0.049
- R48K — lower, -0.451 ± 0.066
- R48E — lower, -0.752 ± 0.088
- R48N — lower, -0.368 ± 0.1
- R48Y — higher, 0.045 ± 0.064
